From PMC3097226

Legend:
[1] = anti-APO-1 surface staining (flow cytometry), transient HeLa; details: glycan lost; control: WT CD95
[2] = cycloheximide chase, Western blot, HEK293T; details: glycan lost; control: WT CD95
[3] = high molecular weight CD95 complexes after anti-APO-1, Western blot; details: glycan lost; control: WT CD95
[4] = confocal microscopy, stable HeLa lines; details: glycan lost; control: WT CD95
[5] = anti-APO-1 surface staining, flow cytometry; details: glycan changed form; control: untreated SKW6.4 cells

B1: CD95 (Fas/APO-1): N118Q (protein)
parent chain: MLGIWTLLPLVLTSVARLSSKSVNAQVTDINSKGLELRKTVTTVETQNLEGLHHDGQFCHKPCPPGERKARDCTVNGDEPDCVPCQEGKEYTDKAHFSSKCRRCRLCDEGHGLEVEINCTRTQNTKCRCKPNFFCNSTVCEHCDPCTKCEHGIIKECTLTSNTKCKEEGSRSNLGWLCLLLLPIPLIVWVKRKEVQKTCRKHRKENQGSHESPTLNPETVAINLSDVDLSKYITTIAGVMTLSQVKGFVRKNGVNEAKIDEIKNDNVQDTAEQKVQLLRNWHQLHGKKEAYDTLIKDLKKANLCTLAEKIQTIILKDITSDSENSNFRNEIQSLV
Which results are given for B1?
localisation_or_trafficking [1]: no change; degradation_or_half_life [2]: no change; oligomerisation [3]: no change; localisation_or_trafficking [4]: no change

B2: CD95 (Fas/APO-1): VCN (protein)
parent chain: B1 parent chain
Which localisation_or_trafficking [5] does the source give for B2 here?
The localisation_or_trafficking was “no change”.

B3: CD95 (Fas/APO-1): N118Q/N136Q (protein)
parent chain: B1 parent chain
For B3, which degradation_or_half_life [2] is on record?
The degradation_or_half_life was “no change”.

And the oligomerisation [3]?
The oligomerisation was “no change”.

B4: CD95 (Fas/APO-1): N136Q (protein)
parent chain: B1 parent chain
With B4 as the protein, how does the localisation_or_trafficking [1] read?
Its localisation_or_trafficking is “no change”.

And the degradation_or_half_life [2]?
The degradation_or_half_life was “no change”.

What about the oligomerisation [3] of the same protein?
The oligomerisation was “no change”.

What about the localisation_or_trafficking [4] of the same protein?
Its localisation_or_trafficking is “no change”.

B5: CD95 (Fas/APO-1): DMM (protein)
parent chain: B1 parent chain
For B5, which localisation_or_trafficking [5] is on record?
Its localisation_or_trafficking is “no change”.
